The term Km denotes the concentration of substrate that gives half-maximal velocity. As usually defined, the kcat is the maximal rate divided by the concentration of active sites.

This is an account of results in PMC12203367, “Shikimate Kinase-Like 1 Participates in an Ancient and Conserved Role Contributing to Chloroplast Biogenesis in Land Plants” (Molecular Biology and Evolution, 2025).

Substrate in this data set: O=C(O)C1=C[C@@H](O)[C@@H](O)[C@H](O)C1
The data set can be described thus: purified protein. It counts as biochemical, Marchantia polymorpha. The note with it: 2.5 mM ATP, 1 mM MgCl2, 50 mM Tris-HCl pH 7.5, 200 mM NaCl, 30 °C, shikimate 0-3 mM.

B1: MpSK (Δ113MpSK) (Marchantia polymorpha) (protein)
chain: QYSLELQEDEELLKKKAALVVQQLAGSCIFLVGMMGSGKTTVGKHVSEALGYYFFDSDKLVEESRGKTVAEMFRYGREEEFRNAESEVLEQLSSMVRLVVATGGGAVVRPENWSYLRHGITVWLDVPVDSLAERVVAVGCHSRPLLGVQAHDSAYKQALERLTHILQERADFYASADAVVSVEELARKRGQDINSITPTMIAVQVLEEISKMLERGDRDPSLQY
notes: N-terminal 113 residues (predicted chloroplast transit peptide) removed; cloned from Tak-2 cDNA; pET28a-MOD, C-terminal His6 cleaved by TEV; E. coli BL21-CodonPlus
As to B1, the Km is 782.5 µM and the kcat is 1.0 s⁻¹.
